Results reported in PMC3825029 (Journal of immunology (Baltimore, Md. : 1950), 2013).

B1: FH19-20 (domain or fragment, human)
chain: GKCGPPPPIDNGDITSFPLSVYAPASSVEYQCQNLYQLEGNKRITCRNGQWSEPPKCLHPCVISREIMENYNIALRWTAKQKLYSRTGESVEFVCKRGYRLSSRSHTLRTTCWDGKLEYPTCAKR

What was measured:
C3b = assay: SPR
C3dg = C3dg (UniProt P01024 955-1303); assay: SPR
C3dg, sequence (P01024 955-1303): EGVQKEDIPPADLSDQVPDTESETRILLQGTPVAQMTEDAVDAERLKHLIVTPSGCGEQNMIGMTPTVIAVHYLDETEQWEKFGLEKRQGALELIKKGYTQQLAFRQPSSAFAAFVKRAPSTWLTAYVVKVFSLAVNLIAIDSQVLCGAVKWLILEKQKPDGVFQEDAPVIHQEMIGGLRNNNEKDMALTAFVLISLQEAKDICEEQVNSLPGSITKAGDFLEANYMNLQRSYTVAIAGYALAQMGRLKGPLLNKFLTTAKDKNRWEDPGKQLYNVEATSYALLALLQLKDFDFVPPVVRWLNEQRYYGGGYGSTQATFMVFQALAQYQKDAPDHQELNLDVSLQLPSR

| Molecule | Kd (C3b) [nM] | binding result (C3dg) |
| --- | --- | --- |
| factor H (from UniProt P08603 19-1231) (natural protein) | 1000 |  |
| mini-FH (from UniProt P08603 1-264; P08603 1107-1231) (designed binder) | 1000 |  |
| B1 |  | binds |
